Key:
Format in all cases: biochemical
[1] = KARI enzyme assay on cell lysates with NADH and NADPH as cofactors
Description: In this example, different KARI enzymes (Table 7) were screened for their activity with NADH and NADPH as cofactor. The enzymes were expressed in an S. cerevisiae strain by means of 2 micron plasmids carrying the KARI genes under the control of the S. cerevisiae TDH3 promoter. The transformants were cultivated in shake flask fermentations as described below and samples were taken after 44 h, centrifuged at 4000×g for 10 mins at 4° C. and the cell pellets were stored at −80° C. until analysis. The pellets were lysed by bead beating and the lysates were analyzed by KARI activity assay as described below using NADH and NADPH as cofactors.
Patched cells (or single colonies) grown on YPD+G418 plates at 30° C. were mixed into 3 mL YP+12% dextrose+200 mM MES, pH 6.5+G418, in 14 mL culture tubes and incubated at 250 RPM, 30° C. for ˜24 hours. The cells from the cultures were used to inoculate YP+12% dextrose+200 mM MES, pH 6.5+G418, in non-baffled flasks with a vented grey screw-caps at OD600 0.01. The cultures were incubated at 250 RPM, 30° C. for 24 hours, diluted 1:3 and incubated for another 20 h at 250 RPM, 30° C. Samples for enzyme assay pellets and protein quantification pellets were taken from each shake flask, and cell-free supernatant was used to measure glucose levels in shake flasks.
The assay and no substrate control reactions were performed in triplicate for each sample. The following stock solutions were prepared: 1 M potassium phosphate, pH 7, 0.1 M MgCl2, 100 mM DTT, 25 mM NADH or NADPH, 200 mM 2-acetolactate. The 2-acetolactate was made fresh each time by mixing 50 μL Ethyl-2-acetoxy-2-methylacetoacetate (EAMAA) with 990 μL water. Gradually 260 μL of 2 N NaOH was added in 10 μL increments to the EAMAA water mixture. After each addition the sample was vortexed for 15 seconds, and the procedure repeated until the entire 260 μL of 2 N NaOH was added. Afterwards the solution was mixed on an orbital shaker for 20 min (Krampitz, 1957). KARI reaction buffer (100 μL per reaction) was prepared to the following concentrations: 250 mM potassium phosphate, pH 7, 10 mM MgCl2, 1 mM DTT, 0.2 mM NADH or NADPH, 10 mM 2-acetolactate. For the no substrate controls, the 2-acetolactate was substituted with water. 10 μL of each lysate were transferred into a 96 well half area assay plate. The reaction was started with 90 μL of reaction buffer to each well using a multichannel pipette. The samples were mixed immediately. The samples were read at 340 nm every 10 s for 5 min.

[2] = KARI assay of purified S. exigua KARI and variants with NADH (Examples 6-9); details: for U/mg NADH (specific activity): cofactor NADH; for Km: read-out: Km for cofactor NADH; for Ratio NADH/NADPH (U/mg): specific activity ratio
Description: (§1) S. exigua KARI activity or activities of its variants were assayed kinetically by monitoring the decrease in NADPH or NADH concentration by measuring the change in absorbance at 340 nm. An assay buffer was prepared containing 100 mM potassium phosphate pH 7.0, 1 mM DTT, 2.5 mM (S)-2-acetolactate, and 10 mM MgCl2 (final concentrations in the 1-mL assay, accounting for dilution with enzyme and cofactor). Fifty μL purified enzyme and 930 μL of the assay buffer were placed into a 1-mL cuvette. The reaction was initiated by addition of 20 μL NADPH or NADH (200 μM final concentration) for a general activity assay. Michaelis-Menten constants of the cofactors were determined with varying concentrations of NADPH (200-12 μM final) or NADH (200-6 μM final).

[3] = KARI assay of purified S. exigua KARI and variants with NADPH (Examples 6-9); details: for U/mg NADPH (specific activity): cofactor NADPH; for Km: read-out: Km for cofactor NADPH
Description: as §1

[4] = High-throughput screening of KARI variant libraries in E. coli lysates
Description: For growth and expression of KARI variants in deep well plates, sterile toothpicks were used to pick single colonies into shallow 96-well plates filled with 300 μL LBamp. Fifty μL of these overnight cultures were used to inoculate deep well plates filled with 600 μL of LBamp per well. The plates were grown at 37° C. with shaking at 250 rpm for 3 h. One hour before induction with IPTG (final concentration 0.5 mM), the temperature of the incubator was reduced to 25° C. After induction, growth and expression continued for 20 h at 25° C. and 250 rpm. Cells were harvested at 5,300 g and 4° C. and then stored at −20=C. The plates always contained four wild-type or parent S. exigua KARI colonies, three BL21(DE3) colonies carrying pET22b(+) to control for background reactions in cell lysates, and one well that contained only media to make sure the plates were free of contaminations.
Frozen cell pellets were thawed at room temperature for 20 min and then 200 μL of lysis buffer (100 mM Kpi, 750 mg/L lysozyme, 10 mg/L DNaseI, pH 7) were added. Plates were vortexed to resuspend the cell pellets. After a 60 min incubation phase at 37° C. and shaking at 130 rpm, plates were centrifuged at 5,300 g and 4° C. for 10 min. […] The depletion of NAD(P)H was monitored at 340 nm in a plate reader (TECAN) over 200 s.

Row | Molecule | Specific Activity with NADH/Specific Activity with NADPH [1] | NADH-Dependent Specific Activity ([1]; empty vector control subtracted) [U/mg lysate] | kcat NADH [2] [s⁻¹] | kcat/Km ratio NADH/NADPH (cofactor specificity) [2] | U/mg NADH (specific activity) [2] [U/mg] | Km [2] [µM] | Ratio NADH/NADPH (U/mg) [2] | Ratio NADH/NADPH (U/mg) ([2]; listed as 4E10) | kcat NADPH [3] [s⁻¹] | U/mg NADPH (specific activity) [3] [U/mg] | Km [3] [µM] | NADH/NADPH activity ratio in the screen/rescreen relative to parent [4]
1 | Zm: Zymomonas mobilis KARI homolog (protein, UniProt Q9X5F8 1-339, looked up) Ketol-acid reductoisomerase …: MKVYYDSDADLGLIKSKKIAILGYGSQGHAHAQNLRDSGVAEVAIALRPDSASVKKAQDAGFKVLTNAEAAKWADILMILAPDEHQAAIYAEDLKDNLRPGSAIAFAHGLNIHFGLIEPRKDIDVFMIAPKGPGHTVRSEYVRGGGVPCLVAVDQDASGNAHDIALAYASGIGGGRSGVIETTFREEVETDLFGEQAVLCGGLTALITAGFETLTEAGYAPEMAFFECMHEMKLIVDLIYEAGIANMRYSISNTAEYGDIVSGPRVINEESKKAMKAILDDIQSGRFVSKFVLDNRAGQPELKAARKRMAAHPIEQVGARLRKMMPWIASNKLVDKARN | 0.074 | 0.002 | – | – | – | – | – | – | – | – | – | –
2 | Se1_KARI^4E10: S. exigua KARI variant L57V, R58P, S61C (protein, UniProt D0WGK0 1-342, looked up, variant L57V R58P S61C) Ketol-acid reductoisomerase …: MSVKTKEKEMAVTILYEQDVDPKVIQGLKVGIIGYGSQGHAHALNLMDSGVDVRVGVPEGCSSWKTAEEAGLKVTDMDTAAEEADVIMVLVPDEIQPKVYQEHIAAHLKAGNTLAFAHGFNIHYGYIVPPEDVNVIMCAPKGPGHIVRRQFTEGSGVPDLACVQQDATGNAWDIVLSYCWGVGGARSGIIKATFAEETEEDLFGEQAVLCGGLVELVKAGFETLTEAGYPPELAYFECYHEMKMIVDLMYESGIHFMNYSISNTAEYGEYYAGPKVINEQSREAMKEILKRIQDGSFAQEFVDDCNNGHKRLLEQREAINTHPIETTGAQIRSMFSWIKKED | – | – | 0.90 | 0.1 | 0.36 | 49 | 1.0 | 1 | 0.90 | 0.36 | 4 | more than doubled
3 | Se1_KARI^14B7: S. exigua KARI variant Y35H, S63D, I95V (protein, UniProt D0WGK0 1-342, looked up, variant Y35H S63D I95V) Ketol-acid reductoisomerase …: MSVKTKEKEMAVTILYEQDVDPKVIQGLKVGIIGHGSQGHAHALNLMDSGVDVRVGLREGSSDWKTAEEAGLKVTDMDTAAEEADVIMVLVPDEVQPKVYQEHIAAHLKAGNTLAFAHGFNIHYGYIVPPEDVNVIMCAPKGPGHIVRRQFTEGSGVPDLACVQQDATGNAWDIVLSYCWGVGGARSGIIKATFAEETEEDLFGEQAVLCGGLVELVKAGFETLTEAGYPPELAYFECYHEMKMIVDLMYESGIHFMNYSISNTAEYGEYYAGPKVINEQSREAMKEILKRIQDGSFAQEFVDDCNNGHKRLLEQREAINTHPIETTGAQIRSMFSWIKKED | – | – | 0.45 | – | 0.18 | – | 0.32 | – | 1.4 | 0.56 | – | –
4 | Se1_KARI^1H1: S. exigua KARI variant R58P, S61C (protein, UniProt D0WGK0 1-342, looked up, variant R58P S61C) Ketol-acid reductoisomerase …: MSVKTKEKEMAVTILYEQDVDPKVIQGLKVGIIGYGSQGHAHALNLMDSGVDVRVGLPEGCSSWKTAEEAGLKVTDMDTAAEEADVIMVLVPDEIQPKVYQEHIAAHLKAGNTLAFAHGFNIHYGYIVPPEDVNVIMCAPKGPGHIVRRQFTEGSGVPDLACVQQDATGNAWDIVLSYCWGVGGARSGIIKATFAEETEEDLFGEQAVLCGGLVELVKAGFETLTEAGYPPELAYFECYHEMKMIVDLMYESGIHFMNYSISNTAEYGEYYAGPKVINEQSREAMKEILKRIQDGSFAQEFVDDCNNGHKRLLEQREAINTHPIETTGAQIRSMFSWIKKED | – | – | 0.50 | – | 0.20 | – | 0.8 | – | 0.65 | 0.26 | – | –
5 | Se1_NKR^Gen6-his6: S. exigua KARI variant S61D, S63D, I95V (protein, UniProt D0WGK0 1-342, looked up, variant S61D S63D I95V, His6 tag, S. exigua KARI variant S61D, S63D, I95V) Ketol-acid reductoisomerase …: MSVKTKEKEMAVTILYEQDVDPKVIQGLKVGIIGYGSQGHAHALNLMDSGVDVRVGLREGDSDWKTAEEAGLKVTDMDTAAEEADVIMVLVPDEVQPKVYQEHIAAHLKAGNTLAFAHGFNIHYGYIVPPEDVNVIMCAPKGPGHIVRRQFTEGSGVPDLACVQQDATGNAWDIVLSYCWGVGGARSGIIKATFAEETEEDLFGEQAVLCGGLVELVKAGFETLTEAGYPPELAYFECYHEMKMIVDLMYESGIHFMNYSISNTAEYGEYYAGPKVINEQSREAMKEILKRIQDGSFAQEFVDDCNNGHKRLLEQREAINTHPIETTGAQIRSMFSWIKKED | – | – | 1 ± 0.01 | 87 | 0.4 ± 0.01 | 47 ± 15 | 5.7 | – | 0.18 ± 0.00 | 0.07 ± 0.0 | > 1000 | –
6 | Se1_KARI^AC1: S. exigua KARI variant S63D, I95A (protein, UniProt D0WGK0 1-342, looked up, variant S63D I95A) Ketol-acid reductoisomerase …: MSVKTKEKEMAVTILYEQDVDPKVIQGLKVGIIGYGSQGHAHALNLMDSGVDVRVGLREGSSDWKTAEEAGLKVTDMDTAAEEADVIMVLVPDEAQPKVYQEHIAAHLKAGNTLAFAHGFNIHYGYIVPPEDVNVIMCAPKGPGHIVRRQFTEGSGVPDLACVQQDATGNAWDIVLSYCWGVGGARSGIIKATFAEETEEDLFGEQAVLCGGLVELVKAGFETLTEAGYPPELAYFECYHEMKMIVDLMYESGIHFMNYSISNTAEYGEYYAGPKVINEQSREAMKEILKRIQDGSFAQEFVDDCNNGHKRLLEQREAINTHPIETTGAQIRSMFSWIKKED | – | – | 0.5 | 0.3 | 0.2 | 68 | 0.5 | – | 1 | 0.4 | 45 | –
7 | Se1_KARI^2C6: S. exigua KARI variant L57V, R58P (protein, UniProt D0WGK0 1-342, looked up, variant L57V R58P) Ketol-acid reductoisomerase …: MSVKTKEKEMAVTILYEQDVDPKVIQGLKVGIIGYGSQGHAHALNLMDSGVDVRVGVPEGSSSWKTAEEAGLKVTDMDTAAEEADVIMVLVPDEIQPKVYQEHIAAHLKAGNTLAFAHGFNIHYGYIVPPEDVNVIMCAPKGPGHIVRRQFTEGSGVPDLACVQQDATGNAWDIVLSYCWGVGGARSGIIKATFAEETEEDLFGEQAVLCGGLVELVKAGFETLTEAGYPPELAYFECYHEMKMIVDLMYESGIHFMNYSISNTAEYGEYYAGPKVINEQSREAMKEILKRIQDGSFAQEFVDDCNNGHKRLLEQREAINTHPIETTGAQIRSMFSWIKKED | – | – | 0.55 | – | 0.22 | – | 0.7 | – | 0.80 | 0.33 | – | –
